According to IntAct's records for PubMed 21057455:

B1: Transcription elongation factor SPT6 (Saccharomyces cerevisiae), P23615 (parent)
chain: MEETGDSKLVPRDEEEIVNDNDETKAPSEEEEGEDVFDSSEEDEDIDEDEDEARKVQEGFIVNDDDENEDPGTSISKKRRKHKRREREEDDRLSEDDLDLLMENAGVERTKASSSSGKFKRLKRVGDEGNAAESESDNVAASRQDSTSKLEDFFSEDEEEEESGLRNGRNNEYGRDEEDHENRNRTADKGGILDELDDFIEDDEFSDEDDETRQRRIQEKKLLREQSIKQPTQITGLSSDKIDEMYDIFGDGHDYDWALEIENEELENGNDNNEAEEEEIDEETGAIKSTKKKISLQDIYDLEDLKKNLMTEGDMKIRKTDIPERYQELRAGITDYGNMSSEDQELERNWIAEKISVDKNFDANYDLTEFKEAIGNAIKFITKENLEVPFIYAYRRNYISSREKDGFLLTEDDLWDIVSLDIEFHSLVNKKDYVQRFYAELHIDDPIVTEYFKNQNTASIAELNSLQDIYDYLEFKYANEINEMFINHTGKTGKKHLKNSSYEKFKASPLYQAVSDIGISAEDVGENISSQHQIHPPVDHPSSKPVEVIESILNANSGDLQVFTSNTKLAIDTVQKYYSLELSKNTKIREKVRSDFSKYYLADVVLTAKGKKEIQKGSLYEDIKYAINRTPMHFRRDPDVFLKMVEAESLNLLSVKLHMSSQAQYIEHLFQIALETTNTSDIAIEWNNFRKLAFNQAMDKIFQDISQEVKDNLTKNCQKLVAKTVRHKFMTKLDQAPFIPNVRDPKIPKILSLTCGQGRFGADAIIAVYVNRKGDFIRDYKIVDNPFDKTNPEKFEDTLDNIIQSCQPNAIGINGPNPKTQKFYKRLQEVLHKKQIVDSRGHTIPIIYVEDEVAIRYQNSERAAQEFPNKPPLVKYCIALARYMHSPLLEYANLTSEEVRSLSIHPHQNLLSSEQLSWALETAFVDIVNLVSVEVNKATDNNYYASALKYISGFGKRKAIDFLQSLQRLNEPLLARQQLITHNILHKTIFMNSAGFLYISWNEKRQKYEDLEHDQLDSTRIHPEDYHLATKVAADALEYDPDTIAEKEEQGTMSEFIELLREDPDRRAKLESLNLESYAEELEKNTGLRKLNNLNTIVLELLDGFEELRNDFHPLQGDEIFQSLTGESEKTFFKGSIIPVRVERFWHNDIICTTNSEVECVVNAQRHAGAQLRRPANEIYEIGKTYPAKVIYIDYANITAEVSLLDHDVKQQYVPISYSKDPSIWDLKQELEDAEEERKLMMAEARAKRTHRVINHPYYFPFNGRQAEDYLRSKERGEFVIRQSSRGDDHLVITWKLDKDLFQHIDIQELEKENPLALGKVLIVDNQKYNDLDQIIVEYLQNKVRLLNEMTSSEKFKSGTKKDVVKFIEDYSRVNPNKSVYYFSLNHDNPGWFYLMFKINANSKLYTWNVKLTNTGYFLVNYNYPSVIQLCNGFKTLLKSNSSKNRMNNYR
partner: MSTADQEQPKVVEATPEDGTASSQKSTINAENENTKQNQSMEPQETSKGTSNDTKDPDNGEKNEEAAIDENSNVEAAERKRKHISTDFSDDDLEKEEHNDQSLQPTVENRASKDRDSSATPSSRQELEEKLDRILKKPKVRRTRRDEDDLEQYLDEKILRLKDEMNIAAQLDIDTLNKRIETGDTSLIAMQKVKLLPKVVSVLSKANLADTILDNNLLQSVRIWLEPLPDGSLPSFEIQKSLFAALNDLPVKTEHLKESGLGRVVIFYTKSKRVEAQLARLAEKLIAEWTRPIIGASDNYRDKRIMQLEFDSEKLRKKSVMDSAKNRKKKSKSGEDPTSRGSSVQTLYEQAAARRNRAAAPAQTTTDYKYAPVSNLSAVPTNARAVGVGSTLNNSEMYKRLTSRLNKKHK
B2: Mediator of RNA polymerase II transcription subunit 13 (Saccharomyces cerevisiae), P38931 (parent)
chain: MSSDASTYRLEDVLSSFYRVEKIKKINYHQYISKAQNDQWSIQMEFMLRKQDPKTLVALLSRDLWCFSINDDPVPTPPAIEHKPVSPDKIGTFTADYSKPNLPPHYALFLKALRRKIYINLALGSHNKLIQFGNACISLSGVPNYLVQLEPHLFVNGDLTVSLCAKNMGLVPMKEENLEESFLSKHALYLAPSGIRMHLAPASKQGYLITPPKHTELLLTTLSVSHGINLQNKKNLKWVAVVPDLGHLNGHTPTIASYLTPLLEAKKLVWPLHLIFAQPVADIENSTSGDPSEFHCLQDALDAIDDFIQLKQTAAYRTPGSSGVLSSNIAGTNPLSSDGAYTEQFQHYKNNSISSQPASYHSVQETNKISPKDFSPNFTGIDKLMLSPSDQFAPAFLNTPNNNINENELFNDRKQTTVSNDLENSPLKTELEANGRSLEKVNNSVSKTGSVDTLHNKEGTLEQREQNENLPSDKSDSMVDKELFGEDEDEDLFGDSNKSNSTNESNKSISDEITEDMFEMSDEEENNNNKSINKNNKEMHTDLGKDIPFFPSSEKPNIRTMSGTTKRLNGKRKYLDIPIDEMTLPTSPLYMDPGAPLPVETPRDRRKSVFAPLNFNPIIENNVDNKYKSGGKFSFSPLQKEEALNFDISMADLSSSEEEEDEEENGSSDEDLKSLNVRDDMKPSDNISTNTNIHEPQYINYSSIPSLQDSIIKQENFNSVNDANITSNKEGFNSIWKIPQNDIPQTESPLKTVDSSIQPIESNIKMTLEDNNVTSNPSEFTPNMVNSEISNLPKDKSGIPEFTPADPNLSFESSSSLPFLLRHMPLASIPDIFITPTPVVTISEKEQDILDLIAEQVVTDYNILGNLGIPKIAYRGVKDCQEGLITTTMLQLFSTFDRLNGNDTISKFYNMKQPYVFVKKHHELIKVKHDSQPFIKFLNFRPPNGIKNFKSLLLSSSFKEDCLSFAPTLSQTYINQELGFCELLKLTNEDPPGLMYLKAFDKNKLLLLAAQIVSYCSNNKNSIKNVPPILIILPLDNATLTELVDKANIFQVIKNEVCAKMPNIELYLKVIPMDFIRNVLVTVDQYVNVAISIYNMLPPKSVKFTHIAHTLPEKVNFRTMQQQQMQQQQQQQQQQQNNSTGSSSIIYYDSYIHLAYSRSVDKEWVFAALSDSYGQGSMTKTWYVGNSRGKFDDACNQIWNIALNLASKKFGKICLILTRLNGILPDDELMNWRRLSGRNIHLAVVCVDDNSKISFIDEDKLYPSFKPIYKDTRFGGRMDMTRLYDYEIRDIDQDIHGIVFQHPFPLAHSQHRCAIRSGALIKFKKCDGDTVWDKFAVNLLNCPHSDSTQLLETILEEFRNLAALNVWYGLSDGEDGHIPWHILAVKKMMNTLVHTRVKIANTSAATVHTATSSSIILSDK
partner: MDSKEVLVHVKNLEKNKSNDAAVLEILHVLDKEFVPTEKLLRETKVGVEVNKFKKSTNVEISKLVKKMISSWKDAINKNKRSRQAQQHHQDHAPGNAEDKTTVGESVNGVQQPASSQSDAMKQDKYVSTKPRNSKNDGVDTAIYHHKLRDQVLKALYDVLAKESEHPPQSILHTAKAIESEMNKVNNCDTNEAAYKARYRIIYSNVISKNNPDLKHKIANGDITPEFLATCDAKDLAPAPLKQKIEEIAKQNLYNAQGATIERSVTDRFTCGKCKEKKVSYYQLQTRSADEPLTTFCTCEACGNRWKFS
B3: SAGA complex subunit SPT8 (Saccharomyces cerevisiae), P38915 (parent)
chain: MDEVDDILINNQVVDDEEDDEEMLSGLENDSKQDLEGNDDGGEDEEDDDDDDEDDDDDEDEREDDDEQEDDDGEDDAARMDKTATPTNEHQHDEQKAAAAGAGGAGDSGDAVTKIGSEDVKLSDVDGGVGSREASSSTHEASANGEVYEYYKHMLNAAQIADSYNIYPTAAIPIQTHVNALAVSRGLKYLFLGGSDGYIRKYDLLNTLEGKLSLTILQKHSLAESIQNAGILQSYWENEIPQKKSEMKLSANKTDYEPKVSPVHSLEVQSECLFILSGLQNGGITMQGVRYMEGSIAHYFKGRNGHTQIVNILRLNGQEDRFLSGSWDKRLLEWDLQTGDIVNEFKKSRSELSSLEMRPLYSSVDVSGNVNSGKENENADDDMDSLFGDEDEDEKQDAGNEPVETGDGSNGEENKEQISEESLNIVYDESVFMTSGLNGSVHIWDRRMTQSPALSLERGAGVPPWCLSACWGVDGDHVYAGRRNACVEQFDLKMPSKPIHNLKLPSISGPVSCVKAMPNNKHLLCASRDNIRLYNVEIAVDASNSTTKSSKVPFLIVPGHHGGIISNLYLDPTSRFIISTSGNRGWQGNSTDTTLIYDIDLE
partner: B2 partner

Variants of: B1
Details: with iws1_yeast SPN1, Q06505

Variant	effect of a mutation on the interaction
I248A	disrupting interaction
F249A	disrupting interaction

Variants of: B2
Details: with tfs2_yeast DST1, P07273

Variant	effect of a mutation on the interaction
L483A	decreasing interaction
F484A	decreasing interaction

Variants of: B3
Details: with tfs2_yeast DST1, P07273

Variant	effect of a mutation on the interaction
L386A	disrupting interaction
F387A	disrupting interaction
